B1: Table S3 C row 111 (dsDNA)
DNA 1: GGATCCAGGACACTCCGGAAGACATCGTGCTGGAAG
DNA 2: CTTCCAGCACGATGTCTTCCGGAGTGTCCTGGATCC
B2: Table S3 C row 150 (dsDNA)
DNA 1: TCTGAACTCTGACAACTTCCTGTCGCTCTGAGTGTG
DNA 2: CACACTCAGAGCGACAGGAAGTTGTCAGAGTTCAGA
B3: Table S3 C row 124 (dsDNA)
DNA 1: ACTTGGGGCATGCAATTTCCGGCAGCACAGAAAACA
DNA 2: TGTTTTCTGTGCTGCCGGAAATTGCATGCCCCAAGT
B4: Table S3 C row 190 (dsDNA)
DNA 1: CGCTCGTAAGTGCTCCGGATGGAATCTGGTGCAGGG
DNA 2: CCCTGCACCAGATTCCATCCGGAGCACTTACGAGCG
B5: Table S3 C row 54 (dsDNA)
DNA 1: CAGACCCCGTGGGGCAGGAAGCTGCTGGGGTAGGCC
DNA 2: GGCCTACCCCAGCAGCTTCCTGCCCCACGGGGTCTG
B6: Table S3 C row 25 (dsDNA)
DNA 1: CTCCAGGGGTGTCACCGGAAAAAGCCGTTTCTGGAG
DNA 2: CTCCAGAAACGGCTTTTTCCGGTGACACCCCTGGAG
B7: Table S3 C row 153 (dsDNA)
DNA 1: CCGCCTTCAGGGCGGCGGAAGTCGCTGGCTGCTCTT
DNA 2: AAGAGCAGCCAGCGACTTCCGCCGCCCTGAAGGCGG
B8: Table S3 C row 131 (dsDNA)
DNA 1: AGTTGGTAGCGCCAACGGAAGCCCATGCCAAACTTG
DNA 2: CAAGTTTGGCATGGGCTTCCGTTGGCGCTACCAACT
B9: Table S3 C row 15 (dsDNA)
DNA 1: CAGCCAGCCCTCGCACGGAAGCGAACTTGCTGTCAC
DNA 2: GTGACAGCAAGTTCGCTTCCGTGCGAGGGCTGGCTG
B10: Table S3 C row 108 (dsDNA)
DNA 1: TCTGCCCTCCCAGCACTTCCGGGCTGGCAGAAGAGC
DNA 2: GCTCTTCTGCCAGCCCGGAAGTGCTGGGAGGGCAGA
B11: Table S3 C row 102 (dsDNA)
DNA 1: CCCCGCGTCCCAGACCGGAAGAAGCCCGGCGCAGAC
DNA 2: GTCTGCGCCGGGCTTCTTCCGGTCTGGGACGCGGGG
B12: Table S3 C row 77 (dsDNA)
DNA 1: TCGGGCCGGGAGCCGGTTCCGGCTGAGTCGGCAGGG
DNA 2: CCCTGCCGACTCAGCCGGAACCGGCTCCCGGCCCGA
B13: Table S3 C row 148 (dsDNA)
DNA 1: GGCTGCCCGTACTCCCGGAAGCCGAATCCCGGCTGG
DNA 2: CCAGCCGGGATTCGGCTTCCGGGAGTACGGGCAGCC
B14: Table S3 C row 193 (dsDNA)
DNA 1: CCGACCCCGCTGCCCCGGAAGGTGAGGCAAGCCTGG
DNA 2: CCAGGCTTGCCTCACCTTCCGGGGCAGCGGGGTCGG
B15: Table S3 C row 86 (dsDNA)
DNA 1: CGCGTGATGGACGCCCGGAAGCCGGCACAACAAATG
DNA 2: CATTTGTTGTGCCGGCTTCCGGGCGTCCATCACGCG
B16: Table S3 C row 110 (dsDNA)
DNA 1: AGCTTATCATCGTCACGGAAGCCCCGCCAGGTGGCG
DNA 2: CGCCACCTGGCGGGGCTTCCGTGACGATGATAAGCT
B17: Table S3 C row 97 (dsDNA)
DNA 1: CACCTGCTACTCAAAGTTCCGCCTCTCTTCAGCGAG
DNA 2: CTCGCTGAAGAGAGGCGGAACTTTGAGTAGCAGGTG
B18: Table S3 C row 24 (dsDNA)
DNA 1: CCCACGCTCTGCGTGCTTCCGGCGAGCAAAGCCCCG
DNA 2: CGGGGCTTTGCTCGCCGGAAGCACGCAGAGCGTGGG
B19: Table S3 C row 84 (dsDNA)
DNA 1: GCTTCTGGGAGAAGCCGGAAGAGACCTGACCCTGAA
DNA 2: TTCAGGGTCAGGTCTCTTCCGGCTTCTCCCAGAAGC
B20: Table S3 C row 160 (dsDNA)
DNA 1: ACCCCGTAGCCGGCGCTTCCTGCCGAGGCTGGGGTC
DNA 2: GACCCCAGCCTCGGCAGGAAGCGCCGGCTACGGGGT
B21: Table S3 C row 23 (dsDNA)
DNA 1: CCCAGCCGGCCTGGACATCCGCCCCGCGCGCGGCGT
DNA 2: ACGCCGCGCGCGGGGCGGATGTCCAGGCCGGCTGGG
B22: Table S3 C row 66 (dsDNA)
DNA 1: CCAGGACAGCACCTATTTCCTGCTGGTGTAACAGAG
DNA 2: CTCTGTTACACCAGCAGGAAATAGGTGCTGTCCTGG
B23: Table S3 C row 93 (dsDNA)
DNA 1: TCCTTCCCTGGCAACAGGAAGTGAAAATGCCAGGCC
DNA 2: GGCCTGGCATTTTCACTTCCTGTTGCCAGGGAAGGA
B24: Table S3 C row 49 (dsDNA)
DNA 1: TGGGACTGACTGAGTCTTCCGTGTGTCGCCGCCGTT
DNA 2: AACGGCGGCGACACACGGAAGACTCAGTCAGTCCCA
B25: Table S3 C row 191 (dsDNA)
DNA 1: GATTGGTTCTCTAAGCTTCCGTCAGTTTACAATCCT
DNA 2: AGGATTGTAAACTGACGGAAGCTTAGAGAACCAATC
B26: Table S3 C row 112 (dsDNA)
DNA 1: ACGTTGCCTCACTGCAGGAAGTGACCCAGGCCTTGC
DNA 2: GCAAGGCCTGGGTCACTTCCTGCAGTGAGGCAACGT
B27: Table S3 C row 98 (dsDNA)
DNA 1: TCGGCGGGGCTGTACCGGAAGTTGCCTCTACTTCTG
DNA 2: CAGAAGTAGAGGCAACTTCCGGTACAGCCCCGCCGA
B28: Table S3 C row 154 (dsDNA)
DNA 1: CCGGCTCATCTGGTATTTCCTGAGCACCTGCGACGT
DNA 2: ACGTCGCAGGTGCTCAGGAAATACCAGATGAGCCGG
B29: Table S3 C row 169 (dsDNA)
DNA 1: CGCGGGCCCGGCCAGCGGAAGCCCCTGCGCCCGCGC
DNA 2: GCGCGGGCGCAGGGGCTTCCGCTGGCCGGGCCCGCG
B30: Table S3 C row 41 (dsDNA)
DNA 1: CAGACTCGGCGTCGGCTTCCGGCGGCGTCAGAGACG
DNA 2: CGTCTCTGACGCCGCCGGAAGCCGACGCCGAGTCTG

In the data set the target is RUNX1 (Homo sapiens, UniProt Q01196). Description: gcPBM; 2 nM RUNX1. The conditions noted are these: tags: N-terminal GST (pDEST15), kept (PMC6008103); label: surface-attached array probe.
RUNX1, sequence (Q01196 whole entry): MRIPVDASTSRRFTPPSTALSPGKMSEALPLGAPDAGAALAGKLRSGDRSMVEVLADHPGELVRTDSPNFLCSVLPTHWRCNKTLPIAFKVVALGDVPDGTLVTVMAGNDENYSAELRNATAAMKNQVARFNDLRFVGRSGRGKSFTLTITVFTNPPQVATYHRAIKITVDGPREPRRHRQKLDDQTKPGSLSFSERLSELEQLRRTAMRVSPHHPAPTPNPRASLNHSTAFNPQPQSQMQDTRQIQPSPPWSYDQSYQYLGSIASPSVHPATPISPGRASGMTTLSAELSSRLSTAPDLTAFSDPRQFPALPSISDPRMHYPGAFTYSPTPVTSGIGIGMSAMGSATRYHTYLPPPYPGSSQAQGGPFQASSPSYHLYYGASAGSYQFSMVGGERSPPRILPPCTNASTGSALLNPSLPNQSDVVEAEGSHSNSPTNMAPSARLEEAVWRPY
On to B1, for which the binding signal is 774 PBM fluorescence, median of replicate spots.

B2: the binding signal was 757 PBM fluorescence, median of replicate spots.

As for B3, the binding signal is 766 PBM fluorescence, median of replicate spots. As to B4, the binding signal was 780 PBM fluorescence, median of replicate spots.

In the case of B5, the binding signal was 758 PBM fluorescence, median of replicate spots. On to B6, for which the binding signal was 765 PBM fluorescence, median of replicate spots. Regarding B7, the binding signal is 759 PBM fluorescence, median of replicate spots. In the case of B8, the binding signal is 778 PBM fluorescence, median of replicate spots. As to B9, the binding signal is 769 PBM fluorescence, median of replicate spots. For B10, the binding signal was 763 PBM fluorescence, median of replicate spots. Turning to B11, the binding signal is 770 PBM fluorescence, median of replicate spots. As for B12, the binding signal is 765 PBM fluorescence, median of replicate spots. On to B13, for which the binding signal is 775 PBM fluorescence, median of replicate spots.

Take B14: the binding signal was 761 PBM fluorescence, median of replicate spots. For the molecule B15, the binding signal is 777 PBM fluorescence, median of replicate spots.

As to B16, the binding signal is 759 PBM fluorescence, median of replicate spots.

For B17, the binding signal was 779 PBM fluorescence, median of replicate spots.

As to B18, the binding signal was 766 PBM fluorescence, median of replicate spots.

B19: the binding signal is 782 PBM fluorescence, median of replicate spots. In the case of B20, the binding signal was 766 PBM fluorescence, median of replicate spots. With B21 the figure was 759 PBM fluorescence, median of replicate spots. In the case of B22, the binding signal is 778 PBM fluorescence, median of replicate spots. Consider B23, for which the binding signal was 766 PBM fluorescence, median of replicate spots.

As for B24, the binding signal is 756 PBM fluorescence, median of replicate spots. In the case of B25, the binding signal was 775 PBM fluorescence, median of replicate spots. With B26 the figure was 771 PBM fluorescence, median of replicate spots; with B27, 759 PBM fluorescence, median of replicate spots. In the case of B28, the binding signal is 757 PBM fluorescence, median of replicate spots. Turning to B29, the binding signal is 779 PBM fluorescence, median of replicate spots. For B30 the value was 762 PBM fluorescence, median of replicate spots.
